Data taken from patent US6635450.

What was measured:
[1] = test system: recombinant mouse Kip1 with a C-terminal hexahistidine sequence (expressed in BL21(DE3) bacteria from pET21a)
[2] = test system: Kip1 (28-79), 52-amino acid peptide with a C-terminal hexahistidine tag
[3] = biological target: His-cyclin E-Cdk2 complex (baculoviral human cyclin E with N-terminal hexahistidine, in complex with baculoviral Cdk2) (human) (UniProt P24864); experiment: cell-based or functional assay
[4] = biological target: human cyclin A-Cdk2 complex (baculovirally expressed) (human) (UniProt P20248); experiment: cell-based or functional assay

Chain of recombinant mouse Kip1 with a C-terminal hexahistidine sequence (expressed in BL21(DE3) bacteria from pET21a) (chain, as listed by the source): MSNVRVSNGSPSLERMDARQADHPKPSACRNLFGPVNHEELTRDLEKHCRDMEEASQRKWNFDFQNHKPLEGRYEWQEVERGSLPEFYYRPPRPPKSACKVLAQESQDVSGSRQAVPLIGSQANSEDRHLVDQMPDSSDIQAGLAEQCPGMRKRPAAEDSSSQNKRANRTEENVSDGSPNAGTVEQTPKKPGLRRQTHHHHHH
Chain of Kip1 (28-79), 52-amino acid peptide with a C-terminal hexahistidine tag (chain, as listed by the source): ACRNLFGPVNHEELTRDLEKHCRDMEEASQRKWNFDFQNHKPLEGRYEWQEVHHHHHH

Substance | Rb kinase activity (phosphorylation of a GST-Rb fusion product) [1] | Rb phosphorylation [2] | cyclin E-associated histone H1 kinase activity and Thr160-phosphorylated form of Cdk2 on western blot [1] | histone H1 kinase activity, half-maximal inhibition [3] [nM] | histone H1 kinase activity, concentration for complete inhibition [4] [fold]
His-cyclin E-Cdk2 complex (baculoviral human cyclin E with N-terminal hexahistidine, in complex with baculoviral Cdk2) | Addition of Kip1 to cyclin E-Cdk2, cyclin A-Cdk2 or cyclin D2-Cdk4 complexes inhibited their ability to phosphorylate a GST-Rb fusion product | inhibited cyclin E-Cdk2 or cyclin D2:Cdk4 less effectively |  |  | 
cyclin E-Cdk2 complexes assembled in A549 cell extracts (added histidine-tagged baculoviral cyclin E with the endogenous Cdk2) |  |  | Addition of histidine-tagged Kip1 to the cell extracts markedly decreased the level of cyclin E-associated kinase activity |  | 
human cyclin A-Cdk2 complex (baculovirally expressed) | Addition of Kip1 to cyclin E-Cdk2, cyclin A-Cdk2 or cyclin D2-Cdk4 complexes inhibited their ability to phosphorylate a GST-Rb fusion product | This peptide inhibited Rb phosphorylation by cyclin A-Cdk2 with a potency that was close to that of full length Kip1 |  |  | 
recombinant mouse Kip1 with a C-terminal hexahistidine sequence (expressed in BL21(DE3) bacteria from pET21a) (from UniProt P46414 1-197) |  |  |  | 0.5 | 8
